The values below are quoted from earlier work in publication PMC10968392.

The target in the data set is SARS-CoV-2 spike protein (cited Kd) (SARS-CoV-2) (UniProt P0DTC2). The data set can be described thus: not stated here (previous study). The note with it: PBSMCT: DPBS, 1 mM MgCl2, 1 mM CaCl2, 0.025% Tween-20; 25 °C, 1 h; pH not stated.

One may read the Kd as the concentration at which binding is half-saturated. Consider “GAACATTGGCGTCCGTGAGCAGCTCGTGGTTGTTTGCTTGTATACTTTTGTGGTTTATCTTGTTTCTGATCACTTCCTCAAACGCCCAA [SpS1-C4 aptamer]”, for which the Kd was 1.81 nM. Take “GAACATTGGCGTCCGTGAGTGAGACCATAGTCCAGCGAACTAAACCTACCCTAAAGGGCAAGGAAGACGGGCACTTCCTCAAACGCCCAA [SpS1-C1 aptamer]”: the dissociation constant (Kd) is 1.47 nM.
